Residue numbers refer to the chain shown, from its start.

Assay [1] deals with T1, recombinant human SLPI (Secretory leukocyte protease inhibitor), R&D Systems Cat#260-PI (human, UniProt P03973 25-131, biotinylated in the streptavidin-plate ELISAs and on SRBCs).
T1 construct: Bought protein; also called biotinylated SLPI; B-Cur12
Put plainly: limiting antigen ELISA, biotinylated SLPI coated at 800 ng/ml. On the procedure:
(§1) The limiting antigen analysis is a method that affinity ranks the antigen-specific antibodies in B cell culture supernatants. […] Each plate was washed 5 times with dH₂O, before 46 μl/well of 1% milk in PBS with 0.05% sodium azide was added, followed by 4 μl/well of B cell supernatant. After 22 hours at RT on a shaker, the plates were again washed 5 times with dH₂O. Goat anti-Human (Fc)-HRP at 1 μg/ml, 50 μl/well was added. After 1 hour at RT, the plates were again washed 5 times with dH₂O and 50 μl/well of TMB substrate was added. The reaction was stopped by the addition of 50 μl of 1M phosphoric acid to each well and the plates were read at wavelength 450 nm. 42C1, 43H7, 35F1 and 9G12 were chosen for further evaluation and cloning.
A general note: ELISA stands for enzyme-linked immunosorbent assay.

Assay [2] has as its target T1, recombinant human SLPI (Secretory …). Put plainly: BIAcore 2000, 25 C, antibody captured on goat anti-human surface, SLPI injected. The protocol: BiaCore® analysis was used to determine binding affinity of anti-SLPI antibody to SLPI antigen. The analysis was performed at 25° C. using a BiaCore® 2000 biosensor equipped with a research-grade CM5 sensor chip. A high-density goat α human antibody surface over a CM5 BiaCore® chip was prepared using routine amine coupling. Antibody supernatents were diluted to ˜5 μg/mL in HBS-P running buffer containing 100 μg/mL BSA and 10 mg/mL carboxymethyldextran. The antibodies were then captured individually on a separate surface using a 2 minute contact time, and a 5 minute wash for stabilization of antibody baseline.
SLPI antigen was injected over each surface for 75 seconds, followed by a 3-minute dissociation. Double-referenced binding data were obtained by subtracting the signal from a control flow cell and subtracting the baseline drift of a buffer inject just prior to the SLPI injection. SLPI binding data for each mAb were normalized for the amount of mAb captured on each surface. The normalized, drift-corrected responses were also measured.

Assay [3] shares this target. Put plainly: limiting antigen ELISA, biotinylated SLPI coated at 400 ng/ml. The protocol:
as §1

For assay [4] the target is unchanged. Put plainly: ELISA, recombinant antibody in HEK 293 supernatant titrated 1:2 on biotinylated human SLPI. The text has this:
After isolation of single plasma cells, mRNA was extracted and reverse transcriptase PCR was used to generate cDNA. The cDNA encoding the variable heavy and light chains was specifically amplified using polymerase chain reaction. The variable heavy chain region was cloned into an IgG2 expression vector, generated by cloning the constant domain of human IgG2 into the multiple cloning site of pcDNA3.1+/Hygro (Invitrogen, Burlington, ON). The variable light chain region was cloned into an IgK expression vector, generated by cloning the constant domain of human IgK into the multiple cloning site of pcDNA3.1+/Neo (Invitrogen, Burlington, ON). The heavy chain and the light chain expression vectors were then co-lipofected into a 60 mm dish of 70% confluent human embryonic kidney 293 (HEK 293) cells and the transfected cells were incubated for 24 hours to secrete recombinant antibody. Supernatant (3 mL) was harvested from the HEK 293 cells and the secretion of intact antibody and binding to SLPI tested ELISA. To detection secretion, 96 well plates were coated with 2 μg/mL of goat anti-human IgG H+L overnight. For detection of SLPI binders, streptavidin plates were coated with biotinylated human SLPI (0.5 μg/mL) overnight at four degrees. The plates were washed five times with dH₂O. Recombinant antibodies titrated 1:2 for 7 wells from the undiluted minilipofection supernatant were added, incubated and the plates were washed five times with dH₂O. Goat anti-human IgG Fc-specific HRP-conjugated antibody was added at a final concentration of 1 μg/mL, incubated for 1 hour at RT and the plates were washed as before. Plates were developed with the addition of TMB for 30 minutes and the reaction was stopped by the addition of 1 M phosphoric acid. Each ELISA plate was analyzed to determine the optical density of each well at 450 nm.

The target is the same in assay [5]. Put plainly: ELISA, SLPI (60 ng/ml) + supernatant on plate-bound chymotrypsin. The protocol: Antibodies were screened for ability to inhibit SLPI activity. The assay involves assessing SLPI binding to chymotrypsin and resultant inhibition of chymotrypsin enzyme activity in the presence or absence of antibody. Biotinylated bovine chymotrypsin (5 μg/ml) was incubated with streptavidin coated plates for 30 minutes at RT. Each plate was washed 5 times with dH₂O prior to addition of an anti-SLPI antibody mixture (30 μl of SLPI reconstituted in 100 mM Tris, 10 mM CaCl₂ and 0.1% HSA pH 7.5 mixed with 20 μl of monoclonal antibody supernatant being tested; final concentration SLPI 60 ng/ml; incubated for 1 hour at RT) and plates were incubated for 1 hour. Plates were washed 5 times with dH₂O then incubated with 50 μl of a polyclonal Goat anti-SLPI (purchased from R&D) at 1 μg/ml/well for 1 hour. After washing, 50 μl of a rabbit anti-goat HRP-conjugated antibody/well was added and incubated for 1 hour. After washing, 50 μl of TMB substrate/well was added.. The reaction was stopped by adding of 50 μl of 1M phosphoric acid/well. Plates were read at wavelength 450 nm.

For assay [6] the target is unchanged. Put plainly: limiting antigen ELISA, biotinylated SLPI coated at 200 ng/ml. The protocol: as §1
Assay [7] has the same target. Put plainly: limiting antigen ELISA, biotinylated SLPI coated at 100 ng/ml. On the procedure:
as §1

T1 sequence (P03973 25-131): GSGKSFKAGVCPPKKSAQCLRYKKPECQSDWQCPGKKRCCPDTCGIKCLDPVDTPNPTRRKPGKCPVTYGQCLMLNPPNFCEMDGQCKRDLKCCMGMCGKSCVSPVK

B1: 35F1 (antibody, human IgG2, V domains shown)
VH: QVQLQESGPGLVKPSQTLSLTCTVSGGSIKSGDYYWSWVRQLPGKGLEWIGYIYYSGSTYYNPSLKSRVTISIDTSKNQFSLKLSSVTAADTAVYYCAREGSYYDSGGFDYWGQGTLVTVSS
VL: not shown
notes: Fully human, XenoMouse XMG2; also called #50; Cur12.1 PL35 F1
With B1, the OD in assay [1] worked out at 0.37 OD450; in assay [3] it was 0.3 OD450; in assay [6] it was 0.24 OD450; in assay [7], 0.2 OD450. Also, the Kd – broadly, the concentration at which binding is half-saturated – in assay [2] came out at 0.14 nM. The “Binding to SLPI (titre of supernatant)” value in assay [4] was above 64 reciprocal dilution. The “% Max” value in assay [5] stood at 47%. The O.D. in assay [5] worked out at 0.35 OD450.

B2: 42C1 (antibody, human IgG2, V domains shown)
VH: B1 VH with G27V, K30S, D33G, V39I, L42H, I73V, Y95F, S102E, S106E
VL: not shown
notes: Fully human, XenoMouse XMG2; also called #24; Cur12.1 PL42 C1
With B2, the OD in assay [1] amounted to 3.85 OD450; in assay [3] it was 3.58 OD450; in assay [6], 3.69 OD450; in assay [7] it was 3.42 OD450. The Kd in assay [2] is 0.116 nM. Moreover, the “Binding to SLPI (titre of supernatant)” value in assay [4] is above 64 reciprocal dilution. Further, the “% Max” value in assay [5] came out at 103%. The O.D. in assay [5] was found to be 0.762 OD450.

B3: 43H7 (antibody, human IgG2, V domains shown)
VH: QVQLVESGGGVVQPGRSLRLSCAASGFTFSTYGMHWVRQAPGKGLEWVTFIWYDGRNKYYADSVKGRFTVSRDNSKNTLYLQMNSLRAEDTAVYYCARGDDYGDYHPHYYYYGLDVWGQGTTVTVSS
VL: DIVMTQTPLSLSVTPGQPASISCKSSQSLLDSDGKTYLYWYLQKPGQPPQLLIYEVSNRFSGVPDRFSGSGSGTDFTLKISRVEAEDVAYYYCMQSIQLPWTFGQGTKVEIK
notes: Fully human, XenoMouse XMG2; also called #11; Cur12.1 PL43 H7
For the molecule B3, the OD in assay [1] amounted to 4.1 OD450; in assay [3], 4.02 OD450; in assay [6], 3.52 OD450; in assay [7], 2.6 OD450. Moreover, in assay [2], the dissociation constant Kd is 0.104 nM. Also, in assay [4], the “Binding to SLPI (titre of supernatant)” value is above 64 reciprocal dilution. The “% Max” value in assay [5] was 90%. Further, in assay [5], the O.D. is 0.666 OD450.

B4: 9G12 (antibody, human IgG2, V domains shown)
VH: B3 VH with T31G, T49A, D54N, R56N, N57D, K58N, A61T, V70I, L114M
VL: B3 VL with V88I, A89G, Y90V, M94L
notes: Fully human, XenoMouse XMG2; also called #36; Cur12.1 PL09 G12
Consider B4, for which the OD was 2.25 OD450 in assay [1], 2.19 OD450 in assay [3], 1.36 OD450 in assay [6] and 0.98 OD450 in assay [7]. Besides, the Kd in assay [2] was found to be 0.053 nM. The “Binding to SLPI (titre of supernatant)” value in assay [4] was above 64 reciprocal dilution. Also, the “% Max” value in assay [5] amounted to 61%. The O.D. in assay [5] is 0.452 OD450.

The values are drawn from patent US20050142137A1 (CURAGEN, published 2005).
